# Measured values from patent US20030125257A1, “Assay for identifying beta secretase inhibitors” (priority 2001, published 2003).
# Square brackets hold non-standard residues; d marks the D form. Ends that are not written are not given here. Sta = CC(C)C[C@H](N)[C@@H](O)CC(=O)O
# Target: T1, purified BACE (Homo sapiens, UniProt P56817)
# T1 construct: Pooled fractions containing full-length BACE were passed over a 5 ml HiTrap Q column; 6xHis (C); made in house; host or cells: Sf9 insect cells (recombinant baculovirus, pFASTBAC1)
# T1 sequence (P56817 46-501): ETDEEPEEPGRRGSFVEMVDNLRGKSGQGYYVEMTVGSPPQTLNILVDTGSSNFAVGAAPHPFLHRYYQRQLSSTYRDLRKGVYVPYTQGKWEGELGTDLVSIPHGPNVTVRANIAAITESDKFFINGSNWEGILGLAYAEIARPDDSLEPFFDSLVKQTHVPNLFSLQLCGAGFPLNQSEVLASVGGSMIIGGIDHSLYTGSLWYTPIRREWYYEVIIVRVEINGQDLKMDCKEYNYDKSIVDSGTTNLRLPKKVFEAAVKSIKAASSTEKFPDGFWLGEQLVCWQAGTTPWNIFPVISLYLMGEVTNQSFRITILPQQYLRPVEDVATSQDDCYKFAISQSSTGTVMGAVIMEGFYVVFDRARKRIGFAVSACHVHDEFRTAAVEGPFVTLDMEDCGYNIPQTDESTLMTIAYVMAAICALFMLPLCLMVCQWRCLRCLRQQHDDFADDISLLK
# Assay: Competitive radioligand binding assay (RLBA)
# Conditions: binding to purified BACE as in example 6, FIG. 4
# Method: 96 well microplates (Optiplate Packard) are coated with purified BACE protein using a concentration of 1 μg/ml in 30 mM sodium citrate buffer adjusted to pH 5.5. The coating is achieved by incubation of 100 μl/well for 1-3 days at 4° C. The plate is then washed with 2×300 μl/well of 10 mM citrate pH 4.1. To each well 100 μl binding buffer (30 mM citrate, 100 mM NaCl, 0.1% BSA, pH 4.1) is dispensed. The test compound (peptide H-4848 in FIGS. 4A and B) is added in 5 μl from a DMSO stock solution or appropriate dilutions. To this the tracer (tritiated Compound A) is added in 10 μl/well from a 10 μCi/ml stock solution in binding buffer. After incubation for 1.5-2 hours in a humid chamber at ambient temperature the plate is washed with 2×300 μl/well water and flipped on a dry towel. Following the addition of 50 μl/well MicroScint20 (Packard) the plate is sealed and vibrated for 5 seconds. The bound radioactivity is counted on a Topcount (Packard). Total binding is typically between 2000 and 10000 cpm/well depending mainly on the purity and concentration of the BACE protein. Non-specific binding as assessed by competition with >1 μM peptide H-4848 (Bachem #H-4848) is typically between 30 and 300 cpm/well. The IC-50 values are calculated by Microsoft Excel FIT.
substance,measurement,value
tritiated compound A: Compound A with iodine exchanged for 3H by reduction on palladium; tracer of the binding assay (EVN[Sta]VAE[Tyr(3H2)]-NH2),equilibrium binding isotherm (Scatchart analysis),single binding site isotherm
